Data from paper PMC3117017.

Target: Nluc2-H2AX (N-terminal fragment of firefly luciferase 2 fused to the N-terminus of histone H2AX) (UniProt P16104)
Assay: split reporter

Substance: MDC1 BRCT domain fused to the C-terminal fragment of firefly luciferase 2 (Cluc) (domain or fragment)
- reporter activity, fold above background (within 3 hour of 6 Gy x-rays): 5 fold
